Source: patent publication US20220332800A1 (Takeda / Millennium, published 2022)

Columns and labels:
Zika PRVABC59 live virus = Zika PRVABC59 live virus (Zika virus); assay: cell-based or functional assay
[1] = biological target: T1, ZIKV-VLP (Native Antigen Inc.) (Zika virus); assay: BLI binning on ZIKV-VLP; 1st mAb: 242-3
T1 construct: also called Zika VLP; ZVLP

[2] = biological target: T1, ZIKV-VLP (Native Antigen Inc.); assay: indirect ELISA, purified antibody serially diluted from 10 µg/ml
[3] = biological target: T1, ZIKV-VLP (Native Antigen Inc.); assay: BLI (Octet), supernatant IgG captured on Protein A biosensor, ZIKV-VLP 3.3 µg/mL in solution, 1:1 model
[4] = biological target: T1, ZIKV-VLP (Native Antigen Inc.); assay: BLI binning on ZIKV-VLP; 1st mAb: 102-1
[5] = biological target: T1, ZIKV-VLP (Native Antigen Inc.); assay: BLI binning on ZIKV-VLP; 1st mAb: 181-4
[6] = biological target: T1, ZIKV-VLP (Native Antigen Inc.); assay: BLI binning on ZIKV-VLP; 1st mAb: 329-2
[7] = biological target: T1, ZIKV-VLP (Native Antigen Inc.); assay: BLI binning on ZIKV-VLP; 1st mAb: C10
[8] = biological target: T1, ZIKV-VLP (Native Antigen Inc.); assay: BLI binning on ZIKV-VLP; 1st mAb: Ab1
[9] = biological target: T1, ZIKV-VLP (Native Antigen Inc.); assay: BLI binning on ZIKV-VLP; 1st mAb: 78-2
[10] = biological target: T1, ZIKV-VLP (Native Antigen Inc.); assay: BLI binning on ZIKV-VLP; 1st mAb: 306-2
[11] = biological target: T1, ZIKV-VLP (Native Antigen Inc.); assay: BLI binning on ZIKV-VLP; 1st mAb: 289-3
[12] = biological target: T1, ZIKV-VLP (Native Antigen Inc.); assay: BLI binning on ZIKV-VLP; 1st mAb: Ab2
[13] = biological target: T1, ZIKV-VLP (Native Antigen Inc.); assay: BLI binning on ZIKV-VLP; 1st mAb: 270-12
[14] = biological target: T1, ZIKV-VLP (Native Antigen Inc.); assay: BLI binning on ZIKV-VLP; 1st mAb: 260-2
[15] = biological target: T1, ZIKV-VLP (Native Antigen Inc.); assay: BLI binning on ZIKV-VLP; 1st mAb: 11-3
[16] = biological target: T1, ZIKV-VLP (Native Antigen Inc.); assay: BLI binning on ZIKV-VLP; 1st mAb: 4G2

Binder	MNT IC50 (ng/mL) of Purified antibody (Zika PRVABC59 live virus) [ng/mL]	response of 2nd mAb [1]	EC50 [2] [mg/L]	koff [3] [s⁻¹]	response of 2nd mAb [4]	response of 2nd mAb [5]	response of 2nd mAb [6]	response of 2nd mAb [7]	response of 2nd mAb [8]	response of 2nd mAb [9]	response of 2nd mAb [10]	response of 2nd mAb [11]	response of 2nd mAb [12]	response of 2nd mAb [13]	response of 2nd mAb [14]	response of 2nd mAb [15]	response of 2nd mAb [16]
anti-ZIKV antibody 181-4/329-2 (antibody) heavy: QAQLEESGGDLVKPEGSLTLTCTASGFSFTDRHYMCWVRQAPGKGLEWIACVYPGSSGSTYYASWARGRFTISKTSSTTVTLRMTSLTAADTATYFCARSSYPDSSGYSYGMDLWGPGTLVTVSSGQPKAPSVFPLAPCCGDTPSSTVTLGCLVKGYLPEPVTVTWNSGTLTNGVRTFPSVRQSSGLYSLSSVVSVTSSSQPVTCNVAHPATNTKVDKTVAPSTCSKPTCPPPELLGGPSVFIFPPKPKDTLMISRTPEVTCVVVDVSQDDPEVQFTWYINNEQVRTARPPLREQQFNSTIRVVSTLPIAHQDWLRGKEFKCKVHNKALPAPIEKTISKARGQPLEPKVYTMGPPREELSSRSVSLTCMINGFYPSDISVEWEKNGKAEDNYKTTPAVLDSDGSYFLYSKLSVPTSEWQRGDVFTCSVMHEALHNHYTQKSISRSPGK light: DIVMTQTPASVEAAVGGTVTIKCQASQNINSNLAWYQQKPGQRPKFLMYLTSKLASGVPSRFRGSGSGTQFTLTISDLECADAATYYCQTYYDISNYGYAFGGGTEVVVKGDPVAPTVLIFPPAADQVATGTVTIVCVANKYFPDVTVTWEVDGTTQTTGIENSKTPQNSADCTYNLSSTLTLTSTQYNSHKEYTCKVTQGTTSVVQSFNRGDC	26.7	0.01	0.0114	< 1e-07	–	–	–	–	–	–	–	–	–	–	–	–	–
anti-ZIKV antibody 260-3 (antibody, also called clone 260-3) heavy: QAQLEESGGDLVKPEGSLTLTCTASGFSFTDRHYMCWVRQAPGKGLEWIACVYPGSSGSTYYASWARGRFTISKTSSTTVTLRMTSLTAADTATYFCARSSYPDSSGYSYGMDLWGPGTLVTVPSGQPKAPSVFPLAPCCGDTPSSTVTLGCLVKGYLPEPVTVTWNSGTLTNGVRTFPSVRQSSGLYSLSSVVSVTSSSQPVTCNVAHPATNTKVDKTVAPSTCSKPTCPPPELLGGPSVFIFPPKPKDTLMISRTPEVTCVVVDVSQDDPEVQFTWYINNEQVRTARPPLREQQFNSTIRVVSTLPIAHQDWLRGKEFKCKVHNKALPAPIEKTISKARGQPLEPKVYTMGPPREELSSRSVSLTCMINGFYPSDISVEWEKNGKAEDNYKTTPAVLDSDGSYFLYSKLSVPTSEWQRGDVFTCSVMHEALHNHYTQKSISRSPGK light: DIVMTQTPASVEAAVGGTVTIKCQASQNINSNLAWYQQKPGQRPKFLMYLTSKLASGVPSRFRGSGSGTQFTLTISDLECADAATYYCQTYYDISNYGYAFGGGTEVVVKGDPVAPTVLIFPPAADQVATGTVTIVCVANKYFPDVTVTWEVDGTTQTTGIENSKTPQNSADCTYNLSSTLTLTSTQYNSHKEYTCKVTQGTTSVVQSFNRGDC	19.9	0.01	0.00793	< 1e-07	0.03	0	0.01	4.06	0.32	0.33	0.32	-0.03	4.96	0.01	0	0.36	0.67
